This is an account of results in paper doi:10.1101/2025.11.21.687491v1.

Common to all, as to assay: purified protein
Conditions in all cases: GSH co-substrate, pH 7.0, 37 °C

Substrate in data set [1]: CCCC/C=C/C(C/C=C\CCCCCCCC(=O)O)OO
Substrate in data set [2]: CCCCC/C=C/C=C/C(CCCCCCCC(=O)O)OO
Substrate in data set [3]: CCCCC/C=C\CC(/C=C/CCCCCCC(=O)O)OO
Substrate in data set [4]: CCCCCC(/C=C/C=C/CCCCCCCC(=O)O)OO
Substrate in data set [5]: CCCCCC(/C=C/C=C\CCCCCCCC(=O)O)OO

B1: AtGSTU17 (U17) (Arabidopsis thaliana) (protein)
chain: MASSDVKLIGAWASPFVMRPRIALNLKSVPYEFLQETFGSKSELLLKSNPVHKKIPVLLHADKPVSESNIIVEYIDDTWSSSGPSILPSDPYDRAMARFWAAYIDEKWFVALRGFLKAGGEEEKKAVIAQLEEGNAFLEKAFIDCSKGKPFFNGDNIGYLDIALGCFLAWLRVTELAVSYKILDEAKTPSLSKWAENFCNDPAVKPVMPETAKLAEFAKKIFPKPQA
The Km is the substrate concentration at which the rate is half of its maximum. In general, kcat refers to the maximal rate divided by the concentration of active sites. Turning to B1, the Michaelis constant (Km) is 20.4 µM in the data set “purified protein [1]”; 8.97 µM in “purified protein [2]”; 9.27 µM in “purified protein [3]”; 24.65 µM in “purified protein [4]”; 10.36 µM in “purified protein [5]”. In addition, the kcat in the data set “purified protein [1]” came out at 2.71 s⁻¹; in “purified protein [2]” it was 1.13 s⁻¹; in “purified protein [3]”, 1.46 s⁻¹; in “purified protein [4]”, 2.44 s⁻¹; in the data set “purified protein [5]”, 2.55 s⁻¹.
